Data on two proteins can be found in publication PMC4935801, “The Arabidopsis Golgi-localized GDP-L-fucose transporter is required for plant development” (Nature Communications, 2016).

Test in all cases: proteo-liposome transport assay, LC-MS/MS
What all share (assay type): biochemical, Arabidopsis thaliana
What all share (details): apparent Km, proteo-liposomes pre-loaded with 10 mM GMP, 0.5–400 μM substrate, 25 °C, pH 7.5, mean (s.e.m.) n=4

Substrate in data set [1]: Nc1nc2c(ncn2[C@@H]2O[C@H](COP(=O)(O)OP(=O)(O)O[C@H]3O[C@H](CO)[C@@H](O)[C@H](O)[C@@H]3O)[C@@H](O)[C@H]2O)c(=O)[nH]1
From the text:
(§1) proteo-liposome transport assay, LC-MS/MS on GONST1

Substrate in data set [2]: C[C@@H]1O[C@H](OP(=O)(O)OP(=O)(O)OC[C@H]2O[C@@H](n3cnc4c(=O)[nH]c(N)nc43)[C@H](O)[C@@H]2O)[C@@H](O)[C@H](O)[C@@H]1O
Source text: as §1

Substrate in data set [3]: C[C@@H]1O[C@H](OP(=O)(O)OP(=O)(O)OC[C@H]2O[C@@H](n3cnc4c(=O)[nH]c(N)nc43)[C@H](O)[C@@H]2O)[C@@H](O)[C@H](O)[C@@H]1O
From the text: proteo-liposome transport assay, LC-MS/MS on GFT1
The source holds these as a separate data set.

B1: GONST1 (Arabidopsis thaliana) (protein)
chain: MKLYEHDGVDLEDGKTVKSGGDKPIPRKIHNRALLSGLAYCISSCSMILVNKFVLSSYNFNAGIFLMLYQNFVSVIIVVGLSLMGLITTEPLTLRLMKVWFPVNVIFVGMLITSMFSLKYINVAMVTVLKNVTNVITAVGEMYLFNKQHDNRVWAALFLMIISAVSGGITDLSFNAVGYAWQIANCFLTASYSLTLRKTMDTAKQVTQSGNLNEFSMVLLNNTLSLPLGLLLSYFFNEMDYLYQTPLLRLPSFWMVMTLSGLLGLAISFTSMWFLHQTGATTYSLVGSLNKIPLSIAGIVLFNVPTSLQNSASILFGLVAGVVFARAKMREKS
notes: yeast microsomal protein reconstituted into liposomes
On to B1, for which, in data set [1], the Km was 17 (3) μM, the Vmax was 1.44 µM/min and the kcat was determined as 1.2 s⁻¹. In data set [2], the Km was 76 (5) μM, the Vmax was 0.84 µM/min and the kcat was 0.7 s⁻¹.

B2: GFT1 (Arabidopsis thaliana) (protein)
chain: MSSSRFDSNKQLTTSSLVIGYALCSSLLAVINKLAITYFNYPGLLTALQYLTCTVAVYLLGKSGLINHDPFTWDTAKKFLPAAIVFYLAIFTNTNLLRHANVDTFIVFRSLTPLLVAIADTVFRSQPLPSRLTFLSLVVILAGAVGYVATDSSFTLTAYSWALAYLVTITTEMVYIKHMVSNIKLNIWGLVLYNNLLSLMIAPVFWFLTGEFTEVFAALSENRGNLFEPYAFSSVAASCVFGFLISYFGFAARNAISATAFTVTGVVNKFLTVVINVLIWDKHATPVGLVCLLFTICGGVGYQQSVKLDKPIEKVSEKDSEKGEEDEELTQLVPGKLASVV
notes: as for B1
In the case of B2, in data set [3], the Km is on record as 7 (1) μM, the Vmax was 3.24 µM/min and the kcat was found to be 4 s⁻¹.
